Experiments:
[1] = molecular target: human GLP-1R-LgBiT-2MBP (glucagon-like peptide-1 receptor, construct for structure determination) (human) (UniProt P43220)
[2] = molecular target: human GLP-1R-LgBiT-2MBP (glucagon-like peptide-1 receptor, construct for structure determination) (human) (UniProt P43220); remark: listed apart in the source

UniProt P43220, sequence (P43220 24-463): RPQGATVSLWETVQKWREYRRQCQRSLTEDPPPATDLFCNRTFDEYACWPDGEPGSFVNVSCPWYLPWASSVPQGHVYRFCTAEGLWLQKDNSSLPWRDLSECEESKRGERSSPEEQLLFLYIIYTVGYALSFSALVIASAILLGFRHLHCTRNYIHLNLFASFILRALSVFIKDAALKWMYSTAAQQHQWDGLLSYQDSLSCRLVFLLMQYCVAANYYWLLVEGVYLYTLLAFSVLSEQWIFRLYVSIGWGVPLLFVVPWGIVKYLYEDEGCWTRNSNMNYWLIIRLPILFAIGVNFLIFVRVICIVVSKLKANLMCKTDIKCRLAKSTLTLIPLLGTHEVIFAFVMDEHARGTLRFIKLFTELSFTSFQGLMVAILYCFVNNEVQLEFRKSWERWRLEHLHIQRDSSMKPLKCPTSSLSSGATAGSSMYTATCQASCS

GLP-1(9-36)NH2 (peptide)
EC50 of cAMP accumulation, WT GLP-1R, with 5 μM LSN3318839 [1]: 0.41 nM | EC50 of cAMP accumulation, WT GLP-1R, with 50 nM LSN3318839 (full agonist) [2]: 23 nM
